This is an account of results in patent US20200010567A1 (NEURIMMUNE, published 2020).

One assay deals with T1, GA10: H-(GA)10HHHHHH-NH2 (C-terminal amide).
T1 peptide: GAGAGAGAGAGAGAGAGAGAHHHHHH
Briefly: sandwich ELISA, peptide captured by anti-His antibody. The text has this: (§1) In brief, His-tagged dipeptide repeat protein peptides were synthesized and purified by Schafer-N(Copenhagen, Denmark): GA₂₀: H-(GA)₂₀HHHHHH-NH₂; GA₁₀: H-(GA)₁₀HHHHHH-NH₂; GA₆: H-(GA)₆HHHHHH-NH₂; GA₅: H-(GA)₅HHHHHH-NH₂; GA₄: H-(GA)₄HHHHHH-NH₂; GA₃: H-(GA)₃HHHHHH-NH₂; GA₂: H-(GA)₂HHHHHH-NH₂; GP₂₀: H-(GP)₂₀HHHHHH-NH₂; GP₁₀: H-(GP)₁₀HHHHHH-NH₂; GP₆: H-(GP)₆HHHHHH-NH₂; GP₅: H-(GP)₅HHHHHH-NH₂; GP₄: H-(GP)₄HHHHHH-NH₂; GP₃: H-(GP)₃HHHHHH-NH₂; GP₂: H-(GP)₂HHHHHH-NH₂. 96-well microplates (Corning Incorporated, Corning, USA) were coated with monoclonal mouse anti-His tag antibody (Takara Bio Europe/Clontech, Saint-Germain-en-Laye, France) at a concentration of 10 μg/ml in coating buffer (15 mM Na₂CO₃, 35 mM NaHCO₃, pH 9.42) overnight at 4° C. Non-specific binding sites were blocked for 1 h at room temperature with PBS/0.1% Tween®-20 containing 2% BSA (Sigma-Aldrich, Buchs, Switzerland). After a washing step, His-tagged C9orf72 DPR protein peptides at equal concentration of either 1 μM or 5 μM in PBS (pH 7.4) were added for target-trapping by the anti-His tag antibody for 1 h at room temperature. […] Antibody binding to DPR protein peptides was detected by a donkey anti-human IgG Fcγ-specific antibody conjugated with HRP at 1:5000 dilution (Jackson ImmunoResearch Laboratories, Inc., West Grove, USA) for 1 h at RT. Binding was determined by measurement of HRP activity in a standard colorimetric assay. EC₅₀ values were estimated by non-linear regression using GraphPad Prism software (San Diego, USA).
In general terms: In an ELISA, binding on a coated surface is turned into a signal by an enzyme label.

For the next assay, the target named is T2, GA20: H-(GA)20HHHHHH-NH2 (C-terminal amide).
T2 peptide: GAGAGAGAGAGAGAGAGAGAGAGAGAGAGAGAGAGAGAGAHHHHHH
Described as above.
From the text: as §1

The target in assay [1] is T3, (GA)15: H-CHHHHHH(GA)15-OH.
T3 construct: synthetic, not coupled to BSA; also called poly-GA DPR protein peptide
T3 peptide: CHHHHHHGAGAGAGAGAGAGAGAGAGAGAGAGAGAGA
The experiment in a line: indirect ELISA, coated uncoupled peptide. On the procedure: In brief, dipeptide repeat proteins were synthesized and purified by Schafer-N(Copenhagen, Denmark): (GA)₁₅: H-CHHHHHH(GA)₁₅-OH; (GP)₁₅: H-C(GP)₁₅-OH; (GR)₁₅: H-C(GR)₁₅-OH; (PA)₁₅: H-C(PA)₁₅-OH; (PR)₁₅: H—C(PR)₁₅-OH. 96-well microplates (Corning Incorporated, Corning, USA) were coated with dipeptide repeat protein peptides at a concentration of either 5 μg/ml or 20 μg/ml in coating buffer (15 mM Na₂CO₃, 35 mM NaHCO₃, pH 9.42). Non-specific binding sites were blocked for 1 h at room temperature with PBS/0.1% Tween®-20 containing 2% BSA (Sigma-Aldrich, Buchs, Switzerland). Primary antibodies were diluted to the indicated concentrations and incubated for 1 h at room temperature, followed by incubation with a donkey anti-human IgG Fcγ-specific antibody conjugated with HRP (Jackson ImmunoResearch Laboratories, Inc., West Grove, USA). Binding was determined by measurement of HRP activity in a standard colorimetric assay. EC₅₀ values were estimated by non-linear regression using GraphPad Prism software (San Diego, USA). The binding specificity and EC₅₀ of human-derived antibodies for C9orf72 dipeptide repeat protein peptides (GA)₁₅, (GP)₁₅, (GR)₁₅, (PA)₁₅ and (PR)₁₅ were determined by indirect ELISA.

For another assay, the target named is T4, GP20: H-(GP)20HHHHHH-NH2 (C-terminal amide).
T4 peptide: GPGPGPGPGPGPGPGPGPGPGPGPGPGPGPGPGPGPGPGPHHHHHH
The experiment in a line: indirect ELISA, coated His-tagged peptide. The text has this: In brief, dipeptide repeat proteins were synthesized and purified by Schafer-N (Copenhagen, Denmark): GA₂₀: H-(GA)₂₀HHHHHH-NH₂; GA₁₀: H-(GA)₁₀HHHHHH-NH₂; GA₆: H-(GA)₆HHHHHH-NH₂; GA₅: H-(GA)₅HHHHHH-NH₂; GA₄: H-(GA)₄HHHHHH-NH₂; GA₃: H-(GA)₃HHHHHH-NH₂; GA₂: H-(GA)₂HHHHHH-NH₂; GP₂₀: H-(GP)₂₀HHHHHH-NH₂; GP₁₀: H-(GP)₁₀HHHHHH-NH₂; GP₆: H-(GP)₆HHHHHH-NH₂; GP₅: H-(GP)₅HHHHHH-NH₂; GP₄: H-(GP)₄HHHHHH-NH₂; GP₃: H-(GP)₃HHHHHH-NH₂; GP₂: H-(GP)₂HHHHHH-NH₂. GR₂₀: H-(GR)₂₀HHHHHH-NH₂; GR₁₀: H-(GR)₁₀HHHHHH-NH₂; GR₆: H-(GR)₆HHHHHH-NH₂; GR₅: H-(GR)₅HHHHHH-NH₂; GR₄: H-(GR)₄HHHHHH-NH₂; GR₃: H-(GR)₃HHHHHH-NH₂; GR₂: H-(GR)₂HHHHHH-NH₂; PA₂₀: H-(PA)₂₀HHHHHH-NH₂; PA₁₀: H-(PA)₁₀HHHHHH-NH₂; PA₆: H-(PA)₆HHHHHH-NH₂; PA₅: H-(PA)₅HHHHHH-NH₂; PA₄: H-(PA)₄HHHHHH-NH₂; PA₃: H-(PA)₃HHHHHH-NH₂; PA₂: H-(PA)₂HHHHHH-NH₂; PR₂₀: H-(PR)₂₀HHHHHH-NH₂; PR₁₀: H-(PR)₁₀HHHHHH-NH₂; PR₆: H-(PR)₆HHHHHH-NH₂; PR₅: H-(PR)₅HHHHHH-NH₂; PR₄: H-(PR)₄HHHHHH-NH₂; PR₃: H-(PR)₃HHHHHH-NH₂; PR₂: H-(PR)₂HHHHHH-NH₂. 96-well microplates (Corning Incorporated, Corning, USA) were coated with dipeptide repeat protein peptides at a concentration of 50 μg/ml in coating buffer (15 mM Na₂CO₃, 35 mM NaHCO₃, pH 9.42). Non-specific binding sites were blocked for 1 h at room temperature with PBS/0.1% Tween®-20 containing 2% BSA (Sigma-Aldrich, Buchs, Switzerland). Primary antibodies were diluted to the indicated concentrations and incubated 1 h at room temperature, followed by incubation with a donkey anti-human IgG Fcγ-specific antibody conjugated with HRP (Jackson ImmunoResearch Laboratories, Inc., West Grove, USA). Binding was determined by measurement of HRP activity in a standard colorimetric assay. EC₅₀ values were estimated by non-linear regression using GraphPad Prism software (San Diego, USA).

B1: NI-308.15O7 (antibody, V domains shown)
VH: QVQLVESGGGVVQPGRSLRLSCAASGFTFSNHAMHWVRQAPGKGLEWVAVISYDGENTYYADSIEGRFTISRDNFKNTLFLQMYSLTADDTAMYFCARGGRRGHFTSYYLDYWGQGTLVTVSS
VL: CDIQMTQSPSSLSASVGDRVTITCRASQNIDKYLNWYQQIPGKAPKLLIYAASSLHSGVPSRFSGSGSGTDFSLTISSLQPEDFAIYYCQQSYSSFRTFGQGTKLEIK
In general, EC50 refers to the concentration giving half of the maximal effect. A low value points to a more potent agent. For the molecule B1, the results for the half-maximal effective concentration (EC50) (in the assay with GA10: H-(GA)10HHHHHH-NH2; with GA20: H-(GA)20HHHHHH-NH2; in assay [1]) were above 400 nM, 9 nM and 0.48 nM, respectively.

B2: NI-308.5G2 (antibody, V domains shown)
VH: EVQLVQSGADLRNPGASVTVSCTASGYHFADNAINWLRQAPGQRLEWMGWINIYSGNTKYSQNFQGRVTFTRNTSASTAFMHLRSLRSEDTAVYFCARDPDSSGYYLPYFDYWGQGTLVTVSS
VL: DIQLTQSPDSLTLSLGERATINCKSSQSVFYNSNNKNYLAWYQQKPGQPPKLLMYWASTRESGVTDRFSGSGSGTDFTLTITNLQAEDVAVYYCQQFYSSPLTFGGGTKVEIK
notes: Recombinant complete human IgG1, kappa
As to B2, the EC50 is 0.47 nM with GP20: H-(GP)20HHHHHH-NH2 and around 15.3 nM in assay [1].

B3: NI-308.28G1 (antibody, V domains shown)
VH: QVQLQESGPRLVKPSETLSLTCTVAGGSVNSYYWTWIQQSPGKGLEWLGRIYIAGRTNYNPSLTSRIALSVDTSRNQLSLKLTSVTAADTAIYYCARWGAESGDYYYGVDVWGPGTLVTVSS
VL: EIVMTQSPLSLPVTPGEPASISCKSSEGLLHSNGYTYLDWYLQKPGQAPQLLIFLASNRAAGVPDRFSGSGSGTDFTLKISRVEAEDVGVYYCMQAIQSPWTFGPGTKVEIK
notes: as for B2
B3: the results for the EC50 (with GA10: H-(GA)10HHHHHH-NH2; with GA20: H-(GA)20HHHHHH-NH2; in assay [1]) were 0.46 nM, 0.4 nM and 1.1 nM, respectively.

B4: NI-308.18F7 (antibody, V domains shown)
VH: QVQLQESGPGLVKPSETLSVTCTVSGGSINDYYWNWIRQPAGKGLEWIGRIYASGTINYNPSLQSRVTMSIDTSKNQFSLDLISVSAADTAVYYCARWGQVVGDYYYGMDVWGQGTTVTVSS
VL: EIVLTQSPLSLSVTPGEPASISCKSSQSLQHTNGYNYLDWYLLKPGQSPQLLIFLTSNRASGVPDRFSGSGSGTNFTLKISRVEAEDVGVYYCMEGIQLWTFGQGTKLEIK
notes: as for B2
Consider B4, for which the results for the concentration giving a half-maximal response (EC50) (in the assay with GA10: H-(GA)10HHHHHH-NH2; with GA20: H-(GA)20HHHHHH-NH2; in assay [1]) were 0.34 nM, 0.45 nM and 1.5 nM, respectively.

B5: NI-308.46E9 (antibody, V domains shown)
VH: QVQLQESGPGLVKPSETLSLTCTVSGASISGSTYYWGWIRQPPGKGLEYIGRIYYSGSTYYNPSLKSRATISVDTSKNQLSLTLSSVTAADTAVYYCVRPFYAGSGNSPFDYWGQGTLVTVSS
VL: CEIVLTQSPATVSVSPGERATLSCRASQSVSTNLAWYQQKPGQPPRLLIYGASTRATGIPARFSGSGSGAEFTLTISSLQSEDFVVYYCQQYNNWPPAFGGGTKVEIK
notes: as for B2
In the assay with GP20: H-(GP)20HHHHHH-NH2, B5 registered a concentration for a half-maximal effect (EC50) of 15.5 nM.

B6: NI-308.6B11 (antibody, V domains shown)
VH: EVQLVQSGAEVKRPGASVKVSCKVSGYTLTELSMHWVRQAPGKGLEWMGGFDPEDGETVYAQKFQGRVTMTEDTSTDTAYMELSSLRSEDTALYHCATYGSSWHWNEGNEGSYYFDYWGQGTLVTVSS
VL: CDIQMTQSPSSLSASVGDRVTITCQASQDISIYLNWYQQKPGKAPKLLIYDASNLETGVPSRFSGSGSGTDFTFTISGLQPEDVARYYCQQYDDLPITFGQGTRLEIK
notes: as for B2
For the molecule B6, the EC50 in assay [1] is around 38.4 nM.
